Numbering of substitutions follows the chain as printed. Names and notes keep the numbering of the source.
B1: human glutamine fructose-6-phosphate amidotransferase-1 (GFAT-1) isoform 2, full length, with internal His6-tag (enzyme, UniProt Q06210-2 1-681, looked up)
chain: MCGIFAYLNYHVPRTRREILETLIKGLQRLEYRGYDSAGVGFDGGNDKDWEANACKIQLIKKKGKVKALDEEVHKQQDMDLDIEFDVHLGIAHTRWATHGEPSPVNSHPQRSDKNNEFIVIHNGIITNYKDLKKFLESKGYDFESETDTETIAKLVKYMYDNRESQDTSFTTLVERVIQQLEGAFALVFKSVHFPGQAVGTRRGSPLLIGVRSEHKLSTDHIPILYRTGKDKKGSCNLSRVDSTTCLFPVEEKAVEYYFASDASAVIEHTNRVIFLEDDDVAAVVDGRLSIHRIKRTAGDHPGRAVQTLQMELQQIMKGNFSSFMQKEIFEQPESVVNTMRGRVNFDDYTVNLGGLKDHIKEIQRCRRLILIACGTSYHAGVATRQVLEELTELPVMVELASDFLDRNTPVFRDDVCFFLSQSGETADTLMGLRYCKERGALTVGITNTVGSSISRETDCGVHINAGPEIGVASTKAYTSQFVSLVMFALMMCDDRISMQERRKEIMLGLKRLPDLIKEVLSMDDEIQKLATELYHQKSVLIMGRGYHYATCLEGALKIKEITYMHSEGILAGELKHGPLALVDKLMPVIMIIMRDHTYAKCQNALQQVVARQGRPVVICDKEDTETIKNTKRTIKVPHSVDCLQGILSVIPLQLLAFHLAVLRGYDVDFPRNLAKSVTVE
modifications: phosphoserine at 243 (found in mass spectrometry and in the crystal structure)
notes: human GFAT-1 isoform 2 (glutamine fructose-6-phosphate amidotransferase-1, EC 2.6.1.16), full length; residue numbers run to 681 (C-loop 670-681); His6 inserted between Gly299 and Asp300; Initial methionine removed in the purified protein; also called GFAT-1 WT; wild type GFAT-1; source: Sf21 insect cells (MultiBac baculovirus), purified (Ni-NTA, SEC); not shown: His6, internal (after residue …)
B2: human GFAT-1 G451E (isoform 2, full length, with internal His6-tag) (enzyme, UniProt Q06210-2 1-681, looked up)
chain: B1 chain with G451E
notes: human GFAT-1 isoform 2, full length, with G451E; His6 inserted between Gly299 and Asp300 (made from pFL-hGFAT1-His299); Same construct as m1 with the point mutation G451E; source: Sf21 insect cells (MultiBac baculovirus), purified (Ni-NTA, SEC)

Target: the molecule itself
Assay: crystal structure; sitting-drop vapor diffusion at 20 °C, 8 mg/ml GFAT-1; 0.1 M Bis tris propane pH 8.5-9.0, 0.2-0.4 M potassium sodium tartrate, 20% (w/v) PEG3350; SEC buffer with Frc6P, 50 mM L-Arg and 50 mM L-Glu; two monomers in the asymmetric unit

Protein	stoichiometry N	binding result
B1	2	–
B2	–	binds

From PMC7000685 (Nature Communications, 2020)
